No end group written: not given here.

The test deals with T1, 6×His标签 (组氨酸标签) (also: coupled to ovalbumin carrier, site not given here).
T1 construct: also called 多组氨酸标签; hexa组氨酸标签
T1 peptide: HHHHHH
Description: indirect phage-ELISA of phage-displayed clones after three rounds of solid-phase panning on 6×His-OVA.

B1: 针对His标签的单域重链抗体 (特异性识别组氨酸标签的纳米抗体) (VHH)
VHH: QVQLVESGGGLVQPGQSLRLSCSAPGFTFNNFGLAWFRQAPGKEREEVACIRSHGVRTHYGASVEGRFTISRDSDNKALWLQMNDLKPEDSAVYYCAADPVPANFDTCVHNGYDYWGLGTQVTVSS
notes: also called 抗His标签单域重链抗体
Take B1: the binding result is “binds”.

(Values after patent CN106146656A (UNIV BEIJING, dated 2016).)
